Experimental data: PMC8650758 (Cell reports, 2021)
Blank lines part the entries; values can stand above or below the binder they belong to.

Legend:
DWnt-5(455-1004) [1] = biological target: T1, DWnt-5(455-1004) (D. melanogaster, UniProt P28466 455-1004, glycosylated at N484/485, N724 and N952; S868 unmodified (not lipid modified)); test: SPR
T1 sequence (looked up): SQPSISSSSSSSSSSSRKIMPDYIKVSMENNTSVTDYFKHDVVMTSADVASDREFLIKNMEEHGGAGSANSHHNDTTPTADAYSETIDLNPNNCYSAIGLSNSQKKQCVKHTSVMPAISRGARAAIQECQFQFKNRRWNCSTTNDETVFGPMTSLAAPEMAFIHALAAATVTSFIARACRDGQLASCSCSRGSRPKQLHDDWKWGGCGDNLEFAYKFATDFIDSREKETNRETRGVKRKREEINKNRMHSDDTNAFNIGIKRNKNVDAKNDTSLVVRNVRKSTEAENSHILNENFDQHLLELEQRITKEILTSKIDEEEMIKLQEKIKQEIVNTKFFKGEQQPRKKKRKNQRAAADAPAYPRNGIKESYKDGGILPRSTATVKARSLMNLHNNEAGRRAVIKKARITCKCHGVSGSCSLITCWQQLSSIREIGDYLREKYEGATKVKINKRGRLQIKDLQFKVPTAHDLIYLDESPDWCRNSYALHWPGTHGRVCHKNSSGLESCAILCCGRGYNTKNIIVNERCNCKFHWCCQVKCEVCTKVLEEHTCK

DWnt-5(455-1004) [2] = biological target: T1, DWnt-5(455-1004); test: pull-down

B2: sDnt (Dnt ECR) (domain or fragment, D. melanogaster)
chain: SEVAAHLNVFLNPVEVMRLLGVSAEVYYVREGHINNYALNFIVPVPANVKDISFTWQSLAGRGLPYSINVVSSDQEVLPRPAINVSHSGEIPTTIQTWSIALKCSGLKAAEVDVTVSLEVVLNRSLNNVTHLVFRRKKICLMNDSAEDLSEDVDDPQLLETVMLPPTGRPLESRGPFEGKPIPNPLLGLDSTRTG
fold weaker binding than the Drl and Drl-2 ECRs (DWnt-5(455-1004) [1]): ~10 fold

B3: sDrl183 (Drl WIF domain) (domain or fragment, D. melanogaster, UniProt Q27324 21-183, looked up)
chain: HLNIFLNLHEVLRLIGVSAELYYVREGAINDYALNFAVPVPANISDVTFTWQSLVDHPLPYSINIATSDTEVLPRPILNISRIGDVPVEPQTWGIALKCSGTRNAEVTVTINVEVILDRATNNNTNLIFKRKKICLREEQDSAHEEYDDDDLDLLQTARKGHG
binding result (DWnt-5(455-1004) [2]): binds

B6: sDrl242 I154E (domain or fragment, D. melanogaster, UniProt Q27324 21-242, looked up)
chain: HLNIFLNLHEVLRLIGVSAELYYVREGAINDYALNFAVPVPANISDVTFTWQSLVDHPLPYSINIATSDTEVLPRPILNISRIGDVPVEPQTWGIALKCSGTRNAEVTVTINVEVILDRATNNNTNLIFKRKKECLREEQDSAHEEYDDDDLDLLQTARKGHGGDIHYVDRNDEHVVANGHQAPEKQRPVVTESPVGRGNSGGSKRDFDPMLRENLVPPASG
binding result (DWnt-5(455-1004) [1]): binds

B7: sDrl242 E126K (domain or fragment, D. melanogaster, UniProt Q27324 21-242, looked up)
chain: HLNIFLNLHEVLRLIGVSAELYYVREGAINDYALNFAVPVPANISDVTFTWQSLVDHPLPYSINIATSDTEVLPRPILNISRIGDVPVEPQTWGIALKCSGTRNAKVTVTINVEVILDRATNNNTNLIFKRKKICLREEQDSAHEEYDDDDLDLLQTARKGHGGDIHYVDRNDEHVVANGHQAPEKQRPVVTESPVGRGNSGGSKRDFDPMLRENLVPPASG
binding result (DWnt-5(455-1004) [1]): binds

Continued, values first:

Kd (DWnt-5(455-1004) [1]): 230 nM
B1: sDrl-2 (Drl-2 ECR) (domain or fragment, D. melanogaster)
chain: GYLNIFISHHEVMKLMGLEADLFYVHEGAINTYAMHFTVPVPADVHELEFSWQSLIAYPLPYAISIEYNNDQEALGTPTLSIPHKGLVPQEIESFLVYLPCTGNASLQMPVNVNMVVRAPPRFNDTRLHFKRNKICAKGISPEPNQSPAPAHAPSQGPARPLESRGPFEGKPIPNPLLGLDSTRTG

fold reduction of affinity against wild-type sDrl242 (DWnt-5(455-1004) [1]): ~10 fold
B4: sDrl242 E40K (domain or fragment, D. melanogaster, UniProt Q27324 21-242, looked up)
chain: HLNIFLNLHEVLRLIGVSAKLYYVREGAINDYALNFAVPVPANISDVTFTWQSLVDHPLPYSINIATSDTEVLPRPILNISRIGDVPVEPQTWGIALKCSGTRNAEVTVTINVEVILDRATNNNTNLIFKRKKICLREEQDSAHEEYDDDDLDLLQTARKGHGGDIHYVDRNDEHVVANGHQAPEKQRPVVTESPVGRGNSGGSKRDFDPMLRENLVPPASG

Kd (DWnt-5(455-1004) [1]): 720 nM
B5: sDrl242 (Drl ECR) (domain or fragment, D. melanogaster, UniProt Q27324 21-242, looked up)
chain: HLNIFLNLHEVLRLIGVSAELYYVREGAINDYALNFAVPVPANISDVTFTWQSLVDHPLPYSINIATSDTEVLPRPILNISRIGDVPVEPQTWGIALKCSGTRNAEVTVTINVEVILDRATNNNTNLIFKRKKICLREEQDSAHEEYDDDDLDLLQTARKGHGGDIHYVDRNDEHVVANGHQAPEKQRPVVTESPVGRGNSGGSKRDFDPMLRENLVPPASG
